Assay: soluble on expression in E. coli; label from the status in PepcDB or PDB records

| Sequence | soluble on expression in E. coli |
| --- | --- |
| MAHHHHHHMMSSASLLEKVPQPWAALVRPFLQRSHEFEDKEPLVAYYLRTHVAFLCMRQRSKEDKDGTAFLMTLLDALEASKARLGAQLQGIDGRTVLTKFALMLFARADDAERTGNASMAIVRLFYTASVLFEATAQFTDDGAMDAVAAQKSKYAKYIATRMKKALDKNEPYVSPNKLETADDDAAGGVGGVNGAGPATTFTTAPASCFMRPTSQPTSVSNRAPAPTTAHENLPALPYAPPPVTQKLDTPPPPPHTPDADTQGRSKTPVHPSPMKNTYAPPQPQHTSQQQQWLSTSSAVPSLPPTPSSAQQRYAAPSSAGGGVGATGFKPSVDQMIDAQKLASQAVSALQFYDYENAKQQLVASLRVLNGVQ | soluble |
| MIKSSSKIGLAFFVRPQFDVDLAKNFFNKVQDSLKEAGIATQVFELPVSTDAEALSLAESVNSHQDLHGLIVVQGTFCDASLILNLASNINLPIMIWATKEQPTGGRLSLNSFCGLNLGAHTLVNAGIKFKGVYGSPGSPAVIKKVTSFARAAGAVKWLKGKRIGLFGHRPSGYYPSNFNEILLRKQFGITVEYLSLSEVFSLAQKMEIKDIQPFINTLVGVEGLEMVSTSKSVQAYLALKELIAQKALDAVAVECWPEFMAGFGGAVCYALSRLNDEGIVAACEADVNGAVTMLLGSYLSSQANFIADLVGAEEEQNQLIFWHCGNGPLSLAAPGTNPVAGVHPNRKTPLAMYFPLKGGPVTVSRLSSDHNGNLRLFLGSGTGIETDLLYSGNSLPIQISGSVEETLDTILCEGIEHHYIVTYGDLTSEFREIAELLGLRMITF | not soluble |
| MGSDKIHHHHHHMSIDTITLQCFLAVAETQSFTKAAQRVGRTQSAISQQIAKLENLIEKPLINRGRELSLTTDGEIFLGYAKRIYELHRESLDRFKAPELQGEIRFGLPEDFASIILSDVLVEFSRLHPRVLLNVECDLTLNLIERFNEGKFDLILIKTTQQQVGSESIYVCTEPVEWIGKKELLPLLDKPGPIPLVLSPTPCVYRGNVIDTLDKNHIDWRLVYSSASYAGKMAAVRAGLGITAIQRSMIPNYLERLDYDFLPILNDVHVSLLKKSGSNKAIESLEFFILQKLKY | not soluble |
| MIQRLLNEENLLIGISELSEIAEVSPRQLRYWEEKGYISSIAKDANGPRKYRLHTVVKVHWIKRFLDEGYTLQSAVEKAEEQHRNVGMTKKIFSQMFHGISEVCPNYVAIDLGDFDEEQKLYVVFNETTEVSEYLLIPKDADVSDELKKRK | not soluble |
| MSRLSEPSPYVEFDRRQWRALRMSTPLALTEEELVGLRGLGEQIDLLEVEEVYLPLARLIHLQVAARQRLFAATAEFLGEPQQNPDRPVPFIIGVAGSVAVGKSTTARVLQALLARWDHHPRVDLVTTDGFLYPNAELQRRNLMHRKGFPESYNRRALMRFVTSVKSGSDYACAPVYSHLHYDIIPGAEQVVRHPDILILEGLNVLQTGPTLMVSDLFDFSLYVDARIEDIEQWYVSRFLAMRTTAFADPESHFHHYAAFSDSQAVVAAREIWRTINRPNLVENILPTRPRATLVLRKDADHSINRLRLRKL | soluble |
| MGFLERIKKLFSKEEEKQEESILSNPLERLKKGDIIEIDGETWEVTDVALYDYGASKEKEWEIRSASRRGFLSLEEGKIYFFEEIDPEELEPDPGEHFRKYGKPPEYVTYKGKRYRLKYAGKAKYIKNLESYPVTIWEFRSEDGEMIDLEIWDEYEIEAYKGRELQEWEIESILPR | not soluble |
| MTHSPSFLQHALSSSDTRAEWPLPGGLAARWLAPGCVELNGDARGADSVLLSCGVHGNETAPIEVVDGMLTDIAAGQLALNCRLLVMFANLDAIRQGVRYGNYDMNRLFNGAHARHPELPESVRAAELETLAAEFFAGARARKLHYDLHTAIRGSVFEKFAIYPFLHDGRTHKREQLAWLQRCGIEAVLLHTQPANTFSYFTSQYCEADAFTLELGKARPFGQNDLSRFSGIDGALRGLLSNPQANVPDLDEDKLPLFRAKYDLVKHSEAFKLNLADSVENFTLLPDGMLIAEDGAVRYQATGGEERILFPNPAVKPGLRAGIVVEPARLPSRLEHHHHHH | soluble |
| MKDPLLNSLIYVSRYYGLANSPEALVNGLPLSDGKLTPFLLPRAAERAGLVAKENRAELEKISSLILPAILVLKGGDSCVLNSINMETREAEVTTLESGMVPISIPLEDLLEQYTGRYFLVKKQFR | soluble |

From the DeepSol protein solubility set
